{"source": "patent US12571800B2", "about": "“Means and methods for treating angiogenesis-related diseases” (Heidelberg Biotech GmbH, priority 2011, dated 2026)", "molecules": {"B1": {"name": "Endostar: recombinant human endostatin from Escherichia coli with an additional nine-amino acid sequence forming a his-tag (protein, UniProt P39060 1572-1754, looked up)", "Endostatin": "HSHRDFQPVLHLVALNSPLSGGMRGIRGADFQCFQQARAVGLAGTFRAFLSSRLQDLYSIVRRADRAAVPIVNLKDELLFPSWEALFSGSEGPLKPGARIFSFDGKDVLRHPTWPQKSVWHGSDPNGRRLTESYCETWRTEAPSATGQASSLLGGRLLGQSAASCHHAYIVLCIENSFMTASK", "modifications": "Endostatin nine-residue his-tag"}, "B2": {"name": "hNC-1: naturally occurring trimeric NC-1 domain of human collagen 18: association domain, hinge region and endostatin domain (protein)", "chain": "SGVRLWATRQAMLGQVHEVPEGWLIFVAEQEELYVRVQNGFRKVQLEARTPLPRGTDNEVAALQPPVVQLHDSNPYPRREHPHPTARPWRADDILASPPRLPEPQPYPGAPHHSSYVHLRPARPTSPPAHSHRDFQPVLHLVALNSPLSGGMRGIRGADFQCFQQARAVGLAGTFRAFLSSRLQDLYSIVRRADRAAVPIVNLKDELLFPSWEALFSGSEGPLKPGARIFSFDGKDVLRHPTWPQKSVWHGSDPNGRRLTESYCETWRTEAPSATGQASSLLGGRLLGQSAASCHHAYIVLCIENSFMTASK", "modifications": "left off: small tags and cut ends", "notes": "naturally occurring trimeric NC-1 domain of human collagen 18: association domain, hinge region and endostatin domain"}}, "key": {"[1]": {"tested_on": "human umbilical vein endothelial cells (HUVECs)", "conditions": "in vitro; cited from earlier work"}, "rat aortic rings": {"tested_on": "rat aortic rings", "conditions": "in vitro; cited from earlier work"}, "solid tumors": {"tested_on": "solid tumors", "conditions": "cited from earlier work"}, "[2]": {"tested_on": "chicken chorioallantoic membrane", "conditions": "CAM assay; cited from earlier work"}, "[3]": {"experiment": "Stability in serum or cell culture media", "assay_type": "in vitro ADME", "conditions": "longer periods of time, even at 4° C.", "from_the_text": "The invention also relates to a method for producing the protein oligomer or peptide oligomer or fusion protein of the invention, comprising (a) culturing a host cell comprising a nucleic acid encoding the protein oligomer or peptide oligomer or fusion protein of the invention, preferably under serum-free conditions, (b) obtaining from the host cell of step (a) the protein oligomer or peptide oligomer or fusion protein, and, optionally, (c) storing the protein oligomer or peptide oligomer or fusion protein, preferably under serum-free conditions. […] Therefore, it is advantageous to produce and keep the protein oligomer or peptide oligomer of the invention under serum-free conditions.\nThe earliest condition media employed for endostatin isolation was continuously kept at 4° C. for a long period of time (at least a month) prior to final purification step. Presence of fetal calf serum in the media can cause degradation of NC-1. Confirmation of this hypothesis was established by another group in the inventor's laboratory a year later, employing the same mouse tumor cell line (Wen et al., loc. cit.). […] Consequently, the earlier observation of an endostatin size protein being the only product following HPLC purification, strongly supports the inventor's hypothesis that NC-1 was completely digested to an endostatin size molecule after prolonged incubation at 4° C. […]"}, "fibronectin [4]": {"target": "T1, fibronectin (Homo sapiens, UniProt P02751)", "T1 sequence (P02751 32-2477)": "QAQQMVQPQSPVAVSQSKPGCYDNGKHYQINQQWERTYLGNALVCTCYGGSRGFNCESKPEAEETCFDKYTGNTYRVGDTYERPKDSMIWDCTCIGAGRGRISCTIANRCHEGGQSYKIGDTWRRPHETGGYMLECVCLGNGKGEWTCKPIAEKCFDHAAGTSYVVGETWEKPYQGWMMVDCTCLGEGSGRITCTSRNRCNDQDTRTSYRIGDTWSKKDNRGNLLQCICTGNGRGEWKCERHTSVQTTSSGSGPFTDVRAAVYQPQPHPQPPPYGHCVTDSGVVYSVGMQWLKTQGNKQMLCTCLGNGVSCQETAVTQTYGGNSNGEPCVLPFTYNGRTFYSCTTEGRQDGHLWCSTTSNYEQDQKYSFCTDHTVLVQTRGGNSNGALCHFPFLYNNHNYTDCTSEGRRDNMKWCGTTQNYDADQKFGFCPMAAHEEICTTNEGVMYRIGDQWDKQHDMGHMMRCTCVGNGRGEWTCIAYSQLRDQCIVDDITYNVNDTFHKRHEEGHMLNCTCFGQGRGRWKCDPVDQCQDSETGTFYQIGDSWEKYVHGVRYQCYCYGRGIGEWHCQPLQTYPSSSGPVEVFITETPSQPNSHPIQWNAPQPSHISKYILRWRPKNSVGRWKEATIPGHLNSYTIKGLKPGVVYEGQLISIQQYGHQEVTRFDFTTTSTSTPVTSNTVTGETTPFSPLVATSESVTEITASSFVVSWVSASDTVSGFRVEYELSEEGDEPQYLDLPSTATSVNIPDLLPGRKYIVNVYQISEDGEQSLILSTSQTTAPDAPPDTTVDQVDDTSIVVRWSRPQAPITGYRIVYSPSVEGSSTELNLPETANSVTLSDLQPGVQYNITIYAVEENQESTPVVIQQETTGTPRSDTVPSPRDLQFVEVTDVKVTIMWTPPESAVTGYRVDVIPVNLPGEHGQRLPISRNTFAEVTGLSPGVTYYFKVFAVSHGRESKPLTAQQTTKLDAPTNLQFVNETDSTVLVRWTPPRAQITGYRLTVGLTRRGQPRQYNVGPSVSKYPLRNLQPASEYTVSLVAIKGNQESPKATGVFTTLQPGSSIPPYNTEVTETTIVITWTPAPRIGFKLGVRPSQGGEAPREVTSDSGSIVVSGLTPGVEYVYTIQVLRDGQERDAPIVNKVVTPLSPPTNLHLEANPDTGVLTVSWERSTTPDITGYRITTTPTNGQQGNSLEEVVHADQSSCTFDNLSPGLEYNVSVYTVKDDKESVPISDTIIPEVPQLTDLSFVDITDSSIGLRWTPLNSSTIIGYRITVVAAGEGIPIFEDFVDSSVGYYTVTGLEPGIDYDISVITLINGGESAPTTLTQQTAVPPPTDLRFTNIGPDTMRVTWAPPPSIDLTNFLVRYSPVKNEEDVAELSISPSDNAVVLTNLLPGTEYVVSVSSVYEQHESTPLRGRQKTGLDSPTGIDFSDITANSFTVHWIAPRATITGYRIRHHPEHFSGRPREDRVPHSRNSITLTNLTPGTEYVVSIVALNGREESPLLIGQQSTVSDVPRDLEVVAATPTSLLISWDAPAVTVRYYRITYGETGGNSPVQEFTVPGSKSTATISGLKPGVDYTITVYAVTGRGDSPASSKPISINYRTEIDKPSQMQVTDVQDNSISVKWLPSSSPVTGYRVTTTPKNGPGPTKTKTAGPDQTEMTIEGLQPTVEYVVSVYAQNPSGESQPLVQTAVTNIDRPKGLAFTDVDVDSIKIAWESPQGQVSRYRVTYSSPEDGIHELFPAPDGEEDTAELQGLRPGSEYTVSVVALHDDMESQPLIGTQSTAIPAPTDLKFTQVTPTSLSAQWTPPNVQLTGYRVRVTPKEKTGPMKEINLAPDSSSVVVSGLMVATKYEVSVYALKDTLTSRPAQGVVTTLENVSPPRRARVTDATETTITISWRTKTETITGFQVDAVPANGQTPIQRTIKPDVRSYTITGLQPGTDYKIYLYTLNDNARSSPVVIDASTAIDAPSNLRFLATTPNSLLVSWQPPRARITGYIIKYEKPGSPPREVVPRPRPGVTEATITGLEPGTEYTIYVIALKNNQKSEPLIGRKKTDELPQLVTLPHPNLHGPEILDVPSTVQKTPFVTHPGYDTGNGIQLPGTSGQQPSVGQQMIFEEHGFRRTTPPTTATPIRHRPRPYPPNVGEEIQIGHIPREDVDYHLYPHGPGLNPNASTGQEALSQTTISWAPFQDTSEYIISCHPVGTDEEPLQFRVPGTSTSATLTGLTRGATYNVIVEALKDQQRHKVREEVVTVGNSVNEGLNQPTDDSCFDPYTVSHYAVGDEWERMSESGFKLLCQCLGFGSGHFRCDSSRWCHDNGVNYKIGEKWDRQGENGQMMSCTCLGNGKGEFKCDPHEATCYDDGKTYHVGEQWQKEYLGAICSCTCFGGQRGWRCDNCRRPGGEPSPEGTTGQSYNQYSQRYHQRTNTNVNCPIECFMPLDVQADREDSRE", "experiment": "Elisa, binding to fibronectin", "conditions": "proteins coated at 10 μg/ml; fibronectin as ligand at the same concentration", "description": "Coating of proteins were done in PBS at concentration of 10 μg/ml. Fibronectin served as a ligand at the same concentration. All buffers contained 2% BSA, 0.1% Tween-20.\nThree protein constructs human Fc (control), dimeric human (h)Fc-Endostatin and hFc-VEGF were employed. […] Artificial endostatin dimer was generated by introducing a single mutation in amino acid position 7 of endostatin (changing glutamine to cysteine) in the recombinant Fc-endostatin. Upon digestion of this mutant protein by enterokinase, endostatin dimer is produced, linked by a disulfide bond (Kuo et al., loc. cit.)."}, "HUVECs [5]": {"tested_on": "HUVECs", "experiment": "Endothelial cell migration assay (transwell, VEGF-induced)", "assay_type": "cell-based, human", "description": "HUVECs were plated into 24-well inserts of transwell plate in duplication. The lower chamber was filled with serum free medium containing 100 ng/ml […] VEGF (rhVEGF) plus different concentrations of hNC-1. After incubation for 16 h at 37° C., the cells were fixed and stained. […] Endostatin monomer, dimer and NC-1 were used for comparison (c).\n1.7 Endothelial cell migration assay. HUVECs were washed by serum free EBM medium twice, re-suspended at 5×10^4 cells/well in 0.6 ml of medium, were plated into 24-well inserts (Coring, 8 μm pore size) in duplicates. The lower chamber was filled with 0.6 ml of serum free EBM medium containing 100 ng/ml […] (rh)VEGF (R&D) After incubation for 16 h at 37° C., the cells were fixed by methanol and stained with eosin and hemotoxlin. Cells on the upper side of the transwell membrane were removed by cotton swab. Cells migrating to the lower side of membrane were counted.\n2.4 hNC-1 inhibits endothelial cells migration. Endothelial cell migration is an important step in new blood vessel formation and tumor angiogenesis. To evaluate the effect of hNC-1 on endothelial cell migration, rhVEGF has been used to induce HUVECs migration in a transwell assay. The migration of cells has been monitored and quantified Cells migrating across the membrane were stained with blue-purple stain (FIG. 3B(a)) and counted."}, "HUVECs [6]": {"tested_on": "HUVECs", "experiment": "Immunofluorescence, endothelial cell surface binding", "assay_type": "cell-based, human", "description": "HUVECs were incubated with Fc-endostatin and detected with Alexa 488 IgG or human NC-1 (hNC-1) trimer and detected by anti-His tag monoclonal antibody.\n1.5 Immunocytochemistry. HUVECs were plated and grown on cover slips. […] The slips were incubated in the blocking buffer (2% BSA PBS) for 30 min. For hFc-endostatin or hFc groups, the slides were incubated with Alexa 488 antihuman IgG for imaging. For hNC-1 or IgG groups, the slides were incubated with mouse anti-His-tag monoclonal antibody, then probed by Alexa 488 anti-mouse IgG. Anti-fibronectin antibody (R&D) was used for secondary staining for all slides and probed by Alexa 594 anti-goat IgG and imaged by confocal-microscopy. DAPI counterstaining of nuclei is shown in blue.\n2.3 Binding of oligomeric hFc-endostatin and hNC-1 to HUVECs. Immunoflourescence technique was employed to detect endothelial cell surface binding of oligomeric endostatin and NC-1."}, "fibronectin [7]": {"target": "T1, fibronectin", "experiment": "Biacore (SPR) equilibrium binding constants to fibronectin", "conditions": "fibronectin 0.78 nM-100 nM over immobilized protein; values only in FIG. 1C", "description": "Fibronectin samples were prepared by serial dilution into 0.01 M Hepes, pH 7.4, 0.15 M NaCl, 0.05% Surfactant containing 1 mg/ml BSA in the range 0.78 nM-100 nM and flowed over control and derivatized surfaces for three minutes at a flow-rate of 60 μl/min. Dissociation phases were monitored for 5 minutes. Zero concentration blank buffer cycles were included as negative control samples. Sensor surfaces were regenerated using a 1 minute injection of 1 M ethanolamine, pH 8.5 following each interaction analysis cycle. Non-specific binding effects to sensor surface CM4 were not observed. Calculated ka, kd and KD are shown. Different curves correspond to different concentrations of fibronectin.\n1.3 Surface Plasmon Resonance (SPR) binding assays. This analysis provides for a unique method for measuring equilibrium constants between two binding partners. It is able to evaluate the kinetics of an interaction by recording the rates of complex formation (ka) and dissociation (kd) followed by employing a software which determines the values of these two parameters. Equilibrium constant (KD) is obtained by calculating the ration of kd/ka Human VEGF (R&D), endostatin, endostatin dimer and human NC-1 (hNC-1) were diluted to 50 μg/ml in 10 mM Sodium Acetate, pH 5.5 and immobilized onto series S sensor chip(s) CM4 via a standard N-ethyl-N′-(dimethyl-aminopropyl)carbodiimide/N-hydroxysuccinimide (EDC/NHS) amine coupling procedures. Control surfaces were prepared similarly without protein derivatization and utilized as a reference surface for compound binding experiments.\nBinding measurements were performed using a Biacore™ (GE Healthcare, Uppsala, Sweden) instrument which employs surface plasmon resonance to detect and monitor molecular interactions.\nData analysis was carried out using Biacore T100 evaluation software v1.1.1. Data were prepared by subtraction of reference surface data and blank buffer sample data, a procedure commonly referred to as ‘double referencing’ and fitted to a 1:1 langmuir binding model.\nIn order to measure equilibrium binding constants for the above proteins, a Biacore system was employed. […] Fc-endostatin imposes a dimeric structure on the two molecules of endostatin at the C-terminus of Fc dimer."}, "[8]": {"tested_on": "human melanoma cancer cells (A2058)", "experiment": "A2058 human melanoma tumors in nude mice", "assay_type": "in vivo", "description": "4-6 tumor-bearing nude mice in each group were subcutaneously (s.c.) treated with hNC-1 (100 μg/mouse once a day), clinical-grade endostatin (100 and 500 μg/mouse once a day) or PBS. Treatment was stopped prior to the development of necrosis. Sites of injection were away from tumors. Tumor sizes and the ratio of treated/control (T/C) is shown.\n1.4 Animal and tumor models. All animal procedures were carried out in compliance with Children's Hospital Boston guidelines Protocols were approved by the Institutional Animal Care and Use Committee. Eight-week-old male (24-27 g) nude/nude mice (Massachusetts General Hospital, Boston, MA) were used. Mice were acclimated, caged in groups of five in a barrier care facility, and fed animal chow and water ad libitum. Animals were euthanized by CO2 inhalation. Human melanoma cell line A2058 was used for animal studies. A suspension of 2×10^6 tumor cells in 0.1 ml of PBS was injected subcutaneously (s.c.) into the dorsa of mice at the proximal midline. Mice were weighed and tumors were monitored twice a week in two diameters with digital calipers. Tumor volumes were determined using a^2×b×0.52 (where a is the shortest and b is the longest diameter). Tumors were allowed to grow to ˜100 mm^3 and mice were randomized. Treatment was by bolus s.c. injections. After experiments were completed, tumors and organs were excised and fixed in either 4% paraformaldehyde or were snap frozen. Four to six mice were treated with each group.\n2.6 hNC-1 suppresses tumor growth in vivo. In order to compare anti-tumor activities of NC-1 and endostatin, nude mice bearing human melanoma cell line A2058 were employed. Two doses of clinical grade endostatin differing by 5-fold in concentration of protein (low and high doses) were used. […] It cannot be ruled out the possibility that injected NC-1 becomes degraded upon entering the circulation."}}, "data": [{"molecule": "B1", "values": [{"measurement": "VEGF-stimulated proliferation, migration, and tube formation of HUVECs", "setting": "[1]", "result": "suppressed"}, {"measurement": "microvessel sprouting from rat aortic rings", "setting": "rat aortic rings", "result": "blocked microvessel sprouting"}, {"measurement": "Median time to tumor progression", "setting": "solid tumors; 7.5 mg/m^2/day i.v. more than 7 days, with chemotherapy", "result": 3.0, "unit": "months"}, {"measurement": "toxicity combined with chemotherapy", "setting": "solid tumors; human, in vivo", "result": "tolerable"}, {"measurement": "treatment related death", "setting": "solid tumors; human, in vivo", "result": "No treatment related death"}, {"measurement": "patients remaining stable", "setting": "solid tumors; of 42 patients", "result": "twenty-one"}, {"measurement": "patients with progressive disease", "setting": "solid tumors; of 42 patients", "result": "nineteen"}, {"measurement": "Median overall survival", "setting": "solid tumors; with chemotherapy", "result": 30.0, "unit": "months"}, {"measurement": "complete response", "setting": "solid tumors; with chemotherapy", "result": "No complete response"}, {"measurement": "one year survival rate", "setting": "solid tumors; with chemotherapy", "result": 81.0, "unit": "%"}, {"measurement": "patients with partial response", "setting": "solid tumors; with chemotherapy", "result": "Two of 42"}, {"measurement": "formation of new capillaries from pre-existing vessels", "setting": "[2]", "result": "inhibit the formation of new capillaries"}]}, {"molecule": "B2", "values": [{"measurement": "stability in serum or cell culture media", "setting": "[3]", "result": "susceptible to degradation"}, {"measurement": "binding to fibronectin (Elisa)", "setting": "fibronectin [4]", "result": "bound fibronectin"}, {"measurement": "anti-migratory potency among endostatin monomer, dimer and NC-1", "setting": "HUVECs [5]", "result": "most potent anti-migratory agent"}, {"measurement": "VEGF-induced endothelial cell migration", "setting": "HUVECs [5]; 100 ng/ml rhVEGF, 16 h", "result": "inhibited VEGF-induced endothelial cell migration"}, {"measurement": "endothelial cell migration", "setting": "HUVECs [5]; 100 and 200 ng/ml of hNC-1", "result": "less migration"}, {"measurement": "dose effect on endothelial cell migration", "setting": "HUVECs [5]; different concentrations of hNC-1", "result": "U-shaped curve"}, {"measurement": "binding to HUVECs", "setting": "HUVECs [6]; cells cultured only for 24 hours", "result": "poor binding"}, {"measurement": "binding to HUVECs", "setting": "HUVECs [6]; incubation time prolonged to 72 hours", "result": "significant binding"}, {"measurement": "equilibrium binding constant to fibronectin (Biacore)", "setting": "fibronectin [7]", "result": "High affinity constants"}, {"measurement": "inhibition of tumor growth", "setting": "[8]; end of experiment, s.c. once a day, hNC-1 100 μg/mouse, endostatin 100 and 500 μg/mouse", "result": 67, "unit": "%"}, {"measurement": "anti-tumor activity compared with endostatin", "setting": "[8]; low dose of NC-1 vs 5-fold higher dose of endostatin", "result": "anti-tumor activity similar to high dose of endostatin"}]}]}
